In paper PMC9482650, “Quantitative fragmentomics allow affinity mapping of interactomes” (Nature Communications, 2022):
Blank lines part the entries; values can stand above or below the binder they belong to.

Tests used:
Assay in all cases: holdup assay
Design in all cases: key: below the threshold = too weak to quantify, mostly under pKd 3.1 to 4
DVL3, Q92997 = molecular target: T1, DVL3, Q92997
T1 sequence (Q92997 244-331, limits assumed, looked up): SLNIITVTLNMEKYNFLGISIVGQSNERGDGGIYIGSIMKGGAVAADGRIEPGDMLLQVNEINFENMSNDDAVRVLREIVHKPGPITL

DFNB31_1, Q9P202 = molecular target: T2, DFNB31_1, Q9P202
T2 sequence (Q9P202 135-233, limits assumed, looked up): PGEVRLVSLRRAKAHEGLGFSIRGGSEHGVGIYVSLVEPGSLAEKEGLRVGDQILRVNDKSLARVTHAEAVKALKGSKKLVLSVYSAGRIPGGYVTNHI

NHERF4_4, Q86UT5 = molecular target: NHERF4_4, Q86UT5
DLG4_2, P78352 = molecular target: DLG4_2, P78352
Inadl_2, Q8NI35 = molecular target: Inadl_2, Q8NI35
SCRIB_2, Q14160 = molecular target: SCRIB_2, Q14160
HTRA3, P83110 = molecular target: T3, HTRA3, P83110
T3 sequence (P83110 354-453, limits assumed, looked up): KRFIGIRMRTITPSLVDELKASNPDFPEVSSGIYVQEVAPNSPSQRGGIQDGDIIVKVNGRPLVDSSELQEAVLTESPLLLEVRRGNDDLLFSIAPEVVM

IL16_4, Q14005 = molecular target: IL16_4, Q14005
Inadl_3, Q8NI35 = molecular target: Inadl_3, Q8NI35
SYNJ2BP, P57105 = molecular target: T4, SYNJ2BP, P57105
T4 sequence (P57105 8-110, limits assumed, looked up): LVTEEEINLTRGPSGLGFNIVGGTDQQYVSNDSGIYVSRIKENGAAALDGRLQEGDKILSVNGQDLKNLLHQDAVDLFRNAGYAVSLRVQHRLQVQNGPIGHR

LNX1_1, Q8TBB1 = molecular target: LNX1_1, Q8TBB1
TJP1_3, Q07157 = molecular target: TJP1_3, Q07157
SCRIB_1, Q14160 = molecular target: SCRIB_1, Q14160
TX1BP3, O14907 = molecular target: T5, TX1BP3, O14907
T5 sequence (O14907 10-122, limits assumed, looked up): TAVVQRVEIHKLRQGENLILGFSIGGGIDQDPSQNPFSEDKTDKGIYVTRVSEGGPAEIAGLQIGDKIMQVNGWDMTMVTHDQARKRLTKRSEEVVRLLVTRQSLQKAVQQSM

NHERF3_4, Q5T2W1 = molecular target: T6, NHERF3_4, Q5T2W1
T6 sequence (Q5T2W1 373-468, limits assumed, looked up): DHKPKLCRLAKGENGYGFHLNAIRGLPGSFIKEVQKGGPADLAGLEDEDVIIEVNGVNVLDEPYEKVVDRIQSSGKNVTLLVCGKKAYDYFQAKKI

AHNAK1, Q09666 = molecular target: AHNAK1, Q09666
GRIP1_3, Q9Y3R0 = molecular target: T7, GRIP1_3, Q9Y3R0
T7 sequence (Q9Y3R0 247-346, limits assumed, looked up): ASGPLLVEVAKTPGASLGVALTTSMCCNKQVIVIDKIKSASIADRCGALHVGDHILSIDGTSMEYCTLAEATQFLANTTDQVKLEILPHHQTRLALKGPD

GRIP1_4, Q9Y3R0 = molecular target: T8, GRIP1_4, Q9Y3R0
T8 sequence (Q9Y3R0 467-571, limits assumed, looked up): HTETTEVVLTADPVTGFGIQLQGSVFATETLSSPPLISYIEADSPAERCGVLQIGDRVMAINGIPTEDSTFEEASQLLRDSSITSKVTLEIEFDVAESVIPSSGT

GRIP2_7, Q9C0E4 = molecular target: GRIP2_7, Q9C0E4
Inadl_10, Q8NI35 = molecular target: Inadl_10, Q8NI35
MAGI2_3, Q86UL8 = molecular target: MAGI2_3, Q86UL8
MAST2, Q6P0Q8 = molecular target: MAST2, Q6P0Q8
PDZD7_3, Q9H5P4 = molecular target: T9, PDZD7_3, Q9H5P4
T9 sequence (Q9H5P4 857-944, limits assumed, looked up): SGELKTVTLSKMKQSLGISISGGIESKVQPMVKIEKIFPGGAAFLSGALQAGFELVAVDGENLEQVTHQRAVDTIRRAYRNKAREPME

HTRA2, O43464 = molecular target: HTRA2, O43464
FRMPD4, Q14CM0 = molecular target: FRMPD4, Q14CM0
TJP2_1, Q9UDY2 = molecular target: TJP2_1, Q9UDY2
GIPC2, Q8TF65 = molecular target: GIPC2, Q8TF65
APBA1_1, Q02410 = molecular target: T10, APBA1_1, Q02410
T10 sequence (Q02410 651-752, limits assumed, looked up): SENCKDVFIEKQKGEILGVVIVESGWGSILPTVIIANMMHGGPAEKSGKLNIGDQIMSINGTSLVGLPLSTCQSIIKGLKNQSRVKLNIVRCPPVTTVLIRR

[1] = plain residues with an end cap or a label only (N-terminal biotin on a linker: ttds)
[2] = plain residues with an end cap or a label only (N-terminal biotin on a linker: ahx)

Chain of SCRIB_2, Q14160 (Q14160 857-960): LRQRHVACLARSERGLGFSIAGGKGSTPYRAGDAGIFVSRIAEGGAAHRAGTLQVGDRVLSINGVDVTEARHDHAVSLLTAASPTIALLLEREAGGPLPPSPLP
Chain of SCRIB_1, Q14160 (Q14160 718-814): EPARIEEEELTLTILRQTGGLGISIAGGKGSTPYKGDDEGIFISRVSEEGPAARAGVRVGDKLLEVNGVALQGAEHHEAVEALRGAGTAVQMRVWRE
Chain of DLG4_2, P78352 (P78352 155-259): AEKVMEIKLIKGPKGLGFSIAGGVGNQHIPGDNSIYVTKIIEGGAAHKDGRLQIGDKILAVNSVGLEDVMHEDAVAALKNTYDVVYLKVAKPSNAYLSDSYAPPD
Chain of TJP1_3, Q07157 (Q07157 416-512): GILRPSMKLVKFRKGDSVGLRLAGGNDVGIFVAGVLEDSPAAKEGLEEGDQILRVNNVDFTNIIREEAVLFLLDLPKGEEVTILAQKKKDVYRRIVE
Chain of Inadl_2, Q8NI35 (Q8NI35 238-335): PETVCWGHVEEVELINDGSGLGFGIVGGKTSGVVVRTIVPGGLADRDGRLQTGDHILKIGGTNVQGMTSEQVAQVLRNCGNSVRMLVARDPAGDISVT
Chain of MAGI2_3, Q86UL8 (Q86UL8 600-682): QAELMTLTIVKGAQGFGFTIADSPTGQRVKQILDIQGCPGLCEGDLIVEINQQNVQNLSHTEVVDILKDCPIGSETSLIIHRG
Chain of GIPC2, Q8TF65 (Q8TF65 112-203): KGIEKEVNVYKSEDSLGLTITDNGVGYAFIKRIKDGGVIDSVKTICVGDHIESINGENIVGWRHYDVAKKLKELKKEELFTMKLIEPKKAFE
Chain of Inadl_10, Q8NI35 (Q8NI35 1673-1763): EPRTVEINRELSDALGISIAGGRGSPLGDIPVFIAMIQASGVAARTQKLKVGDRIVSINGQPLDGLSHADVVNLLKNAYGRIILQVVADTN
Chain of AHNAK1, Q09666 (Q09666 4-100): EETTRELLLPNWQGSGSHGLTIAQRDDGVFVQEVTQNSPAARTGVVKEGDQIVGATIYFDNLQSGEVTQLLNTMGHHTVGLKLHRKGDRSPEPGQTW
Chain of IL16_4, Q14005 (Q14005 1229-1329): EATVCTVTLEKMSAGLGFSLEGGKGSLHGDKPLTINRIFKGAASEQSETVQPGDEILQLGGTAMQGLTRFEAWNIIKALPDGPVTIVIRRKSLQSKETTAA
Chain of HTRA2, O43464 (O43464 355-458): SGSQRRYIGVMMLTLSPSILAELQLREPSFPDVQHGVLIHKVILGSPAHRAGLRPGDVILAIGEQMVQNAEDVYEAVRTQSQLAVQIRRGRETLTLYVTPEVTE
Chain of GRIP2_7, Q9C0E4 (Q9C0E4 934-1023): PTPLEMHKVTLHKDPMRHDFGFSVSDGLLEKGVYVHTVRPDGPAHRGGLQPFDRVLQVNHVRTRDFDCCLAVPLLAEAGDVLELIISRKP
Chain of TJP2_1, Q9UDY2 (Q9UDY2 24-128): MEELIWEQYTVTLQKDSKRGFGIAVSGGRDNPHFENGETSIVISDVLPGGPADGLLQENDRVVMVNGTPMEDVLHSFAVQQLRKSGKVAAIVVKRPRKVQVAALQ
Chain of LNX1_1, Q8TBB1 (Q8TBB1 261-371): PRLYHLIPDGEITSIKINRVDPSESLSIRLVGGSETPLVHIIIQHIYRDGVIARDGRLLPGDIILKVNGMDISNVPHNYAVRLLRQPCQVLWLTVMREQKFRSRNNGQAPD
Chain of MAST2, Q6P0Q8 (Q6P0Q8 1099-1202): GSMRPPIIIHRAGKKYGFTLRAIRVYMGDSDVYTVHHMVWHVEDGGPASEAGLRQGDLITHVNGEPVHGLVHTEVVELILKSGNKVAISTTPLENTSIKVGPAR
Chain of NHERF4_4, Q86UT5 (Q86UT5 464-550): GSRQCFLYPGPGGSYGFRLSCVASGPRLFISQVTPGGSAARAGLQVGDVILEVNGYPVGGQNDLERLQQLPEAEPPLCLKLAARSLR
Chain of FRMPD4, Q14CM0 (Q14CM0 67-160): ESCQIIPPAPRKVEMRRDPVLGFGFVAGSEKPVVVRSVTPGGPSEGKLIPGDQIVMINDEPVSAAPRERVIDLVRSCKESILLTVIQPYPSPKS
Chain of Inadl_3, Q8NI35 (Q8NI35 359-469): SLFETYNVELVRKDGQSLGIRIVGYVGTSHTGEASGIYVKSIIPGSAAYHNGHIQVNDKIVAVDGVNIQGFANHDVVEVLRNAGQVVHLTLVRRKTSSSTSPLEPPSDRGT

- pKd (DVL3, Q92997; [1]): below the threshold
- pKd (DFNB31_1, Q9P202; [1]): 3.84
- pKd (NHERF4_4, Q86UT5; [1]): below the threshold
- pKd (DLG4_2, P78352; [1]): below the threshold
- pKd (Inadl_2, Q8NI35; [1]): below the threshold
- pKd (SCRIB_2, Q14160; [1]): 3.61
- pKd (HTRA3, P83110; [1]): below the threshold
- pKd (IL16_4, Q14005; [1]): below the threshold
- pKd (Inadl_3, Q8NI35; [1]): below the threshold
- pKd (SYNJ2BP, P57105; [1]): 4.01
- pKd (LNX1_1, Q8TBB1; [1]): below the threshold
- pKd (TJP1_3, Q07157; [1]): below the threshold
- pKd (SCRIB_1, Q14160; [1]): 4.91
- pKd (TX1BP3, O14907; [1]): below the threshold
- pKd (NHERF3_4, Q5T2W1; [1]): 4.78
- pKd (AHNAK1, Q09666; [1]): below the threshold
- pKd (GRIP1_3, Q9Y3R0; [1]): below the threshold
- pKd (GRIP1_4, Q9Y3R0; [1]): below the threshold
- pKd (GRIP2_7, Q9C0E4; [1]): below the threshold
- pKd (Inadl_10, Q8NI35; [1]): below the threshold
- pKd (MAGI2_3, Q86UL8; [1]): below the threshold
- pKd (MAST2, Q6P0Q8; [1]): below the threshold
- pKd (PDZD7_3, Q9H5P4; [1]): 4.25
- pKd (HTRA2, O43464; [1]): below the threshold
- pKd (FRMPD4, Q14CM0; [1]): 4.45
- pKd (TJP2_1, Q9UDY2; [1]): below the threshold
- pKd (GIPC2, Q8TF65; [1]): below the threshold
- pKd (APBA1_1, Q02410; [1]): below the threshold
Binder: IDNDTESTAL [ARHGAP17, Q68EM7]

- pKd (DVL3, Q92997; [2]): below the threshold
- pKd (DFNB31_1, Q9P202; [2]): below the threshold
- pKd (NHERF4_4, Q86UT5; [2]): below the threshold
- pKd (DLG4_2, P78352; [2]): below the threshold
- pKd (Inadl_2, Q8NI35; [2]): below the threshold
- pKd (SCRIB_2, Q14160; [2]): below the threshold
- pKd (HTRA3, P83110; [2]): below the threshold
- pKd (IL16_4, Q14005; [2]): below the threshold
- pKd (Inadl_3, Q8NI35; [2]): below the threshold
- pKd (SYNJ2BP, P57105; [2]): below the threshold
- pKd (LNX1_1, Q8TBB1; [2]): below the threshold
- pKd (TJP1_3, Q07157; [2]): below the threshold
- pKd (SCRIB_1, Q14160; [2]): below the threshold
- pKd (TX1BP3, O14907; [2]): below the threshold
- pKd (NHERF3_4, Q5T2W1; [2]): below the threshold
- pKd (AHNAK1, Q09666; [2]): below the threshold
- pKd (GRIP1_3, Q9Y3R0; [2]): below the threshold
- pKd (GRIP1_4, Q9Y3R0; [2]): below the threshold
- pKd (GRIP2_7, Q9C0E4; [2]): below the threshold
- pKd (Inadl_10, Q8NI35; [2]): below the threshold
- pKd (MAGI2_3, Q86UL8; [2]): below the threshold
- pKd (MAST2, Q6P0Q8; [2]): below the threshold
- pKd (PDZD7_3, Q9H5P4; [2]): below the threshold
- pKd (HTRA2, O43464; [2]): below the threshold
- pKd (FRMPD4, Q14CM0; [2]): below the threshold
- pKd (TJP2_1, Q9UDY2; [2]): below the threshold
- pKd (GIPC2, Q8TF65; [2]): below the threshold
- pKd (APBA1_1, Q02410; [2]): below the threshold
Binder: TEAKLTETNA [MYO18A, Q92614]
